Numbered stars: 1 amine (or outer) side, 2 acyl side, 3 side chain; on linkers, the order of the positions; unused ones are H or OH. Square brackets hold non-standard residues; d marks the D form. Side chains are listed from the residue outwards. * marks the point of attachment. γGlu = O=C(O)[C@H](CCC(=O)[*:2])N[*:1]; Palmitoyl = CCCCCCCCCCCCCCCC(=O)*; Aib = CC(C)(N)C(=O)O

B1: Compound 47 (peptide)
peptide: H-Y[Aib]EGTFTSDYSIYLDSK([γGlu-Palmitoyl])AAHDFVEWLLRA-NH2
SMILES: CCCCCCCCCCCCCCCC(=O)N[C@@H](CCC(=O)NCCCC[C@H](NC(=O)[C@H](CO)NC(=O)[C@H](CC(=O)O)NC(=O)[C@H](CC(C)C)NC(=O)[C@H](Cc1ccc(O)cc1)NC(=O)[C@@H](NC(=O)[C@H](CO)NC(=O)[C@H](Cc1ccc(O)cc1)NC(=O)[C@H](CC(=O)O)NC(=O)[C@H](CO)NC(=O)[C@@H](NC(=O)[C@H](Cc1ccccc1)NC(=O)[C@@H](NC(=O)CNC(=O)[C@H](CCC(=O)O)NC(=O)C(C)(C)NC(=O)[C@@H](N)Cc1ccc(O)cc1)[C@@H](C)O)[C@@H](C)O)[C@@H](C)CC)C(=O)N[C@@H](C)C(=O)N[C@@H](C)C(=O)N[C@@H](Cc1c[nH]cn1)C(=O)N[C@@H](CC(=O)O)C(=O)N[C@@H](Cc1ccccc1)C(=O)N[C@H](C(=O)N[C@@H](CCC(=O)O)C(=O)N[C@@H](Cc1c[nH]c2ccccc12)C(=O)N[C@@H](CC(C)C)C(=O)N[C@@H](CC(C)C)C(=O)N[C@@H](CCCNC(=N)N)C(=O)N[C@@H](C)C(N)=O)C(C)C)C(=O)O
B2: Compound 42 (peptide)
peptide: H-Y[Aib]EGTFTSDYSIYLDKKAAHDFVEWLLSA-NH2
SMILES: CC[C@H](C)[C@H](NC(=O)[C@H](CO)NC(=O)[C@H](Cc1ccc(O)cc1)NC(=O)[C@H](CC(=O)O)NC(=O)[C@H](CO)NC(=O)[C@@H](NC(=O)[C@H](Cc1ccccc1)NC(=O)[C@@H](NC(=O)CNC(=O)[C@H](CCC(=O)O)NC(=O)C(C)(C)NC(=O)[C@@H](N)Cc1ccc(O)cc1)[C@@H](C)O)[C@@H](C)O)C(=O)N[C@@H](Cc1ccc(O)cc1)C(=O)N[C@@H](CC(C)C)C(=O)N[C@@H](CC(=O)O)C(=O)N[C@@H](CCCCN)C(=O)N[C@@H](CCCCN)C(=O)N[C@@H](C)C(=O)N[C@@H](C)C(=O)N[C@@H](Cc1c[nH]cn1)C(=O)N[C@@H](CC(=O)O)C(=O)N[C@@H](Cc1ccccc1)C(=O)N[C@H](C(=O)N[C@@H](CCC(=O)O)C(=O)N[C@@H](Cc1c[nH]c2ccccc12)C(=O)N[C@@H](CC(C)C)C(=O)N[C@@H](CC(C)C)C(=O)N[C@@H](CO)C(=O)N[C@@H](C)C(N)=O)C(C)C
B3: Compound 46 (peptide)
peptide: H-Y[Aib]EGTFTSDYSIYLEKK([γGlu-Palmitoyl])AAKEFVEWLLSA-NH2
SMILES: CCCCCCCCCCCCCCCC(=O)N[C@@H](CCC(=O)NCCCC[C@H](NC(=O)[C@H](CCCCN)NC(=O)[C@H](CCC(=O)O)NC(=O)[C@H](CC(C)C)NC(=O)[C@H](Cc1ccc(O)cc1)NC(=O)[C@@H](NC(=O)[C@H](CO)NC(=O)[C@H](Cc1ccc(O)cc1)NC(=O)[C@H](CC(=O)O)NC(=O)[C@H](CO)NC(=O)[C@@H](NC(=O)[C@H](Cc1ccccc1)NC(=O)[C@@H](NC(=O)CNC(=O)[C@H](CCC(=O)O)NC(=O)C(C)(C)NC(=O)[C@@H](N)Cc1ccc(O)cc1)[C@@H](C)O)[C@@H](C)O)[C@@H](C)CC)C(=O)N[C@@H](C)C(=O)N[C@@H](C)C(=O)N[C@@H](CCCCN)C(=O)N[C@@H](CCC(=O)O)C(=O)N[C@@H](Cc1ccccc1)C(=O)N[C@H](C(=O)N[C@@H](CCC(=O)O)C(=O)N[C@@H](Cc1c[nH]c2ccccc12)C(=O)N[C@@H](CC(C)C)C(=O)N[C@@H](CC(C)C)C(=O)N[C@@H](CO)C(=O)N[C@@H](C)C(N)=O)C(C)C)C(=O)O
B4: Compound 44 (peptide)
peptide: H-Y[Aib]EGTFTSDYSIYLDSKAAHDFVEWLLRA-NH2
SMILES: CC[C@H](C)[C@H](NC(=O)[C@H](CO)NC(=O)[C@H](Cc1ccc(O)cc1)NC(=O)[C@H](CC(=O)O)NC(=O)[C@H](CO)NC(=O)[C@@H](NC(=O)[C@H](Cc1ccccc1)NC(=O)[C@@H](NC(=O)CNC(=O)[C@H](CCC(=O)O)NC(=O)C(C)(C)NC(=O)[C@@H](N)Cc1ccc(O)cc1)[C@@H](C)O)[C@@H](C)O)C(=O)N[C@@H](Cc1ccc(O)cc1)C(=O)N[C@@H](CC(C)C)C(=O)N[C@@H](CC(=O)O)C(=O)N[C@@H](CO)C(=O)N[C@@H](CCCCN)C(=O)N[C@@H](C)C(=O)N[C@@H](C)C(=O)N[C@@H](Cc1c[nH]cn1)C(=O)N[C@@H](CC(=O)O)C(=O)N[C@@H](Cc1ccccc1)C(=O)N[C@H](C(=O)N[C@@H](CCC(=O)O)C(=O)N[C@@H](Cc1c[nH]c2ccccc12)C(=O)N[C@@H](CC(C)C)C(=O)N[C@@H](CC(C)C)C(=O)N[C@@H](CCCNC(=N)N)C(=O)N[C@@H](C)C(N)=O)C(C)C
B5: Compound 43 (peptide)
peptide: H-Y[Aib]EGTFTSDYSIYLEKKAAKEFVEWLLSA-NH2
SMILES: CC[C@H](C)[C@H](NC(=O)[C@H](CO)NC(=O)[C@H](Cc1ccc(O)cc1)NC(=O)[C@H](CC(=O)O)NC(=O)[C@H](CO)NC(=O)[C@@H](NC(=O)[C@H](Cc1ccccc1)NC(=O)[C@@H](NC(=O)CNC(=O)[C@H](CCC(=O)O)NC(=O)C(C)(C)NC(=O)[C@@H](N)Cc1ccc(O)cc1)[C@@H](C)O)[C@@H](C)O)C(=O)N[C@@H](Cc1ccc(O)cc1)C(=O)N[C@@H](CC(C)C)C(=O)N[C@@H](CCC(=O)O)C(=O)N[C@@H](CCCCN)C(=O)N[C@@H](CCCCN)C(=O)N[C@@H](C)C(=O)N[C@@H](C)C(=O)N[C@@H](CCCCN)C(=O)N[C@@H](CCC(=O)O)C(=O)N[C@@H](Cc1ccccc1)C(=O)N[C@H](C(=O)N[C@@H](CCC(=O)O)C(=O)N[C@@H](Cc1c[nH]c2ccccc12)C(=O)N[C@@H](CC(C)C)C(=O)N[C@@H](CC(C)C)C(=O)N[C@@H](CO)C(=O)N[C@@H](C)C(N)=O)C(C)C
B6: Compound 40 (peptide)
peptide: H-Y[Aib]EGTFTSDYSIYLDEKAAKDFVEWLLSA-NH2
SMILES: CC[C@H](C)[C@H](NC(=O)[C@H](CO)NC(=O)[C@H](Cc1ccc(O)cc1)NC(=O)[C@H](CC(=O)O)NC(=O)[C@H](CO)NC(=O)[C@@H](NC(=O)[C@H](Cc1ccccc1)NC(=O)[C@@H](NC(=O)CNC(=O)[C@H](CCC(=O)O)NC(=O)C(C)(C)NC(=O)[C@@H](N)Cc1ccc(O)cc1)[C@@H](C)O)[C@@H](C)O)C(=O)N[C@@H](Cc1ccc(O)cc1)C(=O)N[C@@H](CC(C)C)C(=O)N[C@@H](CC(=O)O)C(=O)N[C@@H](CCC(=O)O)C(=O)N[C@@H](CCCCN)C(=O)N[C@@H](C)C(=O)N[C@@H](C)C(=O)N[C@@H](CCCCN)C(=O)N[C@@H](CC(=O)O)C(=O)N[C@@H](Cc1ccccc1)C(=O)N[C@H](C(=O)N[C@@H](CCC(=O)O)C(=O)N[C@@H](Cc1c[nH]c2ccccc12)C(=O)N[C@@H](CC(C)C)C(=O)N[C@@H](CC(C)C)C(=O)N[C@@H](CO)C(=O)N[C@@H](C)C(N)=O)C(C)C
B7: Compound 41 (peptide)
peptide: H-Y[Aib]EGTFTSDYSIYLESKAAHDFVEWLLSA-NH2
SMILES: CC[C@H](C)[C@H](NC(=O)[C@H](CO)NC(=O)[C@H](Cc1ccc(O)cc1)NC(=O)[C@H](CC(=O)O)NC(=O)[C@H](CO)NC(=O)[C@@H](NC(=O)[C@H](Cc1ccccc1)NC(=O)[C@@H](NC(=O)CNC(=O)[C@H](CCC(=O)O)NC(=O)C(C)(C)NC(=O)[C@@H](N)Cc1ccc(O)cc1)[C@@H](C)O)[C@@H](C)O)C(=O)N[C@@H](Cc1ccc(O)cc1)C(=O)N[C@@H](CC(C)C)C(=O)N[C@@H](CCC(=O)O)C(=O)N[C@@H](CO)C(=O)N[C@@H](CCCCN)C(=O)N[C@@H](C)C(=O)N[C@@H](C)C(=O)N[C@@H](Cc1c[nH]cn1)C(=O)N[C@@H](CC(=O)O)C(=O)N[C@@H](Cc1ccccc1)C(=O)N[C@H](C(=O)N[C@@H](CCC(=O)O)C(=O)N[C@@H](Cc1c[nH]c2ccccc12)C(=O)N[C@@H](CC(C)C)C(=O)N[C@@H](CC(C)C)C(=O)N[C@@H](CO)C(=O)N[C@@H](C)C(N)=O)C(C)C
B8: Compound 45 (peptide)
peptide: H-Y[Aib]EGTFTSDYSKYLDSK([γGlu-Palmitoyl])AAHDFVEWLLSA-NH2
SMILES: CCCCCCCCCCCCCCCC(=O)N[C@@H](CCC(=O)NCCCC[C@H](NC(=O)[C@H](CO)NC(=O)[C@H](CC(=O)O)NC(=O)[C@H](CC(C)C)NC(=O)[C@H](Cc1ccc(O)cc1)NC(=O)[C@H](CCCCN)NC(=O)[C@H](CO)NC(=O)[C@H](Cc1ccc(O)cc1)NC(=O)[C@H](CC(=O)O)NC(=O)[C@H](CO)NC(=O)[C@@H](NC(=O)[C@H](Cc1ccccc1)NC(=O)[C@@H](NC(=O)CNC(=O)[C@H](CCC(=O)O)NC(=O)C(C)(C)NC(=O)[C@@H](N)Cc1ccc(O)cc1)[C@@H](C)O)[C@@H](C)O)C(=O)N[C@@H](C)C(=O)N[C@@H](C)C(=O)N[C@@H](Cc1c[nH]cn1)C(=O)N[C@@H](CC(=O)O)C(=O)N[C@@H](Cc1ccccc1)C(=O)N[C@H](C(=O)N[C@@H](CCC(=O)O)C(=O)N[C@@H](Cc1c[nH]c2ccccc12)C(=O)N[C@@H](CC(C)C)C(=O)N[C@@H](CC(C)C)C(=O)N[C@@H](CO)C(=O)N[C@@H](C)C(N)=O)C(C)C)C(=O)O

The target of one assay is T1, human GIP receptor (human, UniProt P48546 22-466).
T1 sequence (looked up): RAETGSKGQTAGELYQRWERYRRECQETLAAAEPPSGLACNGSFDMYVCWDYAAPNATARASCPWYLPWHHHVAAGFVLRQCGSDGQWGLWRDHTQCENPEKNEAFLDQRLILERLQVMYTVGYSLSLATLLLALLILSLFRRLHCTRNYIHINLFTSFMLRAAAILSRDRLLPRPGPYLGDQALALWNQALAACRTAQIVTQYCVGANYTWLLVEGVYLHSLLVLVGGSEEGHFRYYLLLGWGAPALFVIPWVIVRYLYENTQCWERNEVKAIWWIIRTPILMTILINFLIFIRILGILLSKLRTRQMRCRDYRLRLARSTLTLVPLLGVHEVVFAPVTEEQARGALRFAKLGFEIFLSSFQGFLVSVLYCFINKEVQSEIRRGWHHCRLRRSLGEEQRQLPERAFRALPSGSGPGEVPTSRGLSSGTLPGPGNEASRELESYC
Briefly: cell-based or functional assay.
As to B1, the “EC50, cAMP induction in HEK293 cells expressing human GIP R” value came to 0.096 nM.
Turning to B2, the “EC50, cAMP induction in HEK293 cells expressing human GIP R” value was 0.007 nM.
Consider B3, for which the “EC50, cAMP induction in HEK293 cells expressing human GIP R” value was determined as 0.088 nM.
Consider B4, for which the “EC50, cAMP induction in HEK293 cells expressing human GIP R” value is 0.016 nM.
As to B5, the “EC50, cAMP induction in HEK293 cells expressing human GIP R” value amounted to 0.0091 nM.
B6: the “EC50, cAMP induction in HEK293 cells expressing human GIP R” value amounted to 0.011 nM.
With B7, the “EC50, cAMP induction in HEK293 cells expressing human GIP R” value was 0.013 nM.
For the molecule B8, the “EC50, cAMP induction in HEK293 cells expressing human GIP R” value turned out to be 0.32 nM.

The target in another assay is human GLP-1 receptor (human, UniProt P43220 24-463). Briefly: cell-based or functional assay.
For B1, the “EC50, cAMP induction in HEK293 cells expressing human GLP-1 R” value is 0.14 nM.
In the case of B2, the “EC50, cAMP induction in HEK293 cells expressing human GLP-1 R” value worked out at 0.012 nM.
For B3, the “EC50, cAMP induction in HEK293 cells expressing human GLP-1 R” value stood at 0.048 nM.
In the case of B4, the “EC50, cAMP induction in HEK293 cells expressing human GLP-1 R” value was determined as 0.013 nM.
As for B5, the “EC50, cAMP induction in HEK293 cells expressing human GLP-1 R” value was determined as 0.017 nM.
For the molecule B6, the “EC50, cAMP induction in HEK293 cells expressing human GLP-1 R” value was 0.022 nM.
On to B7, for which the “EC50, cAMP induction in HEK293 cells expressing human GLP-1 R” value amounted to 0.011 nM.
In the case of B8, the “EC50, cAMP induction in HEK293 cells expressing human GLP-1 R” value worked out at 0.11 nM.

The values above are taken from patent publication US20150299281A1 (ZEALAND PHARMA A S, published 2015).
